# B1: TPR t1 (parent)
# chain: GACCAAUCUGCCCUCAGAGCUCGAGAACAUCUUCGGAUGCAGAGGAGGCAGGCUUCGGUGGCGCGAUAGCGCCAACGUCCUCAACCUCCAAUGCAUCCCACCACAUGAUGAUGCCUGAAGAGCCUUGGUUUUUUG
# Variants of: B1
# Assay: polymerase ribozyme fitness, log enrichment relative to wild type (log ratio); higher = more active; in vitro selection for triplet polymerase activity
# Procedure, shortened: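 A heterodimeric triplet polymerase ribozyme had each of its subunits mutagenized by PCR into a library, which was transcribed. One round of in vitro selection, done in triplicate, annealed each library with a biotinylated primer, its partner subunit and triplets, then incubated it frozen at −7 °C before gel excision of extended constructs, streptavidin-bead capture and RT-PCR. Fitness is the logarithm of genotype enrichment relative to wild-type enrichment, based on Illumina sequencing of inputs and outputs and inverse-variance-weighted replicate averages. A base-2 logarithm is used, and genotypes were kept only with ≥10 input reads and ≥1 read per output.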
row,Variant,polymerase ribozyme fitness (log ratio)
1,U132G U133A,0.0135
2,C56G U78A U81A G113C,-3.06
3,C56A C70U C80U G120C C123G,-1.95
4,G42A C88A,-1.56
5,C88G G113U U125C U132A,-3.76
6,A74G G110A A111G,0.0395
7,G39A C73A,-0.374
8,U21C G63C G120A,-0.168
9,C70U C123G,0.306
10,C13G U78C,-0.825
11,A2U C72U C101G C124A,-2.06
12,A16G A41U C72U U106C G120C,-1.7
13,G45U G51A,-3.89
14,A16G U116C,1.6
15,C72A G117A U126A,-1.78
16,G58A C72G C82A G110C G113A,-6.33
17,A5U U14C A18U G45U G71U A121C,-5.73
18,A46U U78C C124A,0.325
19,A16U G47U G69C,-3.2
20,C73A G135U,-1.25
21,C53G C56U G117A,-1.63

row,Variant,polymerase ribozyme fitness (log ratio)
1,U14A C94G,-3.05
2,C13U G51U G52U C82A,-5.14
3,A27U C53A,-3.49
4,G48C C123G,0.677
5,G48A C72U A119U,-0.826
6,A5C G10A C34A C123U,-0.78
7,C13U C72G U81C A95C A119U,-1.87
8,G44A A66G,-1.89
9,A74U C114A U129A,-3.53
10,A37U C73A U87C,0.034
11,C12U C85U U112C,0.732
12,U7G C12U C20A C72U,-1.43
13,A24G G42U U59G C88G,-5.92
14,G39A A43U C86G,-1.99
15,C8A G44U G52A C72A,-0.705
16,A18U A66G U78C A118G U132A,-3.83
17,C8A G71U,-0.261
18,A26U C49U U54C G93C,-5.34
19,C56U U132C,-0.156
20,C22G G23A G52C,-3.57
21,C13A C40A G71A,-4.02

row,Variant,polymerase ribozyme fitness (log ratio)
1,U55A G71C,-1.29
2,U87C,0.386
3,C13U G47U G117U,-2.08
4,A5G G45U G60A C101G U133G,-3.66
5,C73U A119G C123G,2.02
6,U55A A66G C101G,-2.92
7,A24G G71U,-1.76
8,C89U G127C,-1.79
9,U59G C97A,-4.8
10,C34U G35U,-4.9
11,G42U A50C U92C,-2.73
12,A29G A84C C94U U106A G120A U125G,-0.885
13,C13U A18C C88G U92A,-2.48
14,G69A G113A,-2.7
15,G36C A37U C82A U116G G120C,-3.26
16,G63A A111U G122A,-6.48
17,A46G G69U U78A C94U C115A G127C,-2.24
18,G36A G61A,-0.395
19,G44U C73A C102A,-2.29
20,G44A A68G C70G C72A G110A G122A C124A,-7.69
21,A37U G47C C49U,-2.66

row,Variant,polymerase ribozyme fitness (log ratio)
1,C8G G42U G58C,-0.604
2,C80U C89A A119U,-2.89
3,C53U C56G U116A G120C U133G,-1.3
4,A50G C101U,-0.187
5,A50G G69U,0.675
6,U9C G44U G63A C89G U109A,-7.22
7,C8U A29U C70A U87A,-2.4
8,G57U C88A,-1.1
9,C12U G19A G71A C73U C123A,-1.42
10,G17C C49A,-4.92
11,G36C G113C,-2.78
12,C22G G60C,-3.23
13,G69A U78A,-2.94
14,C62A U87A A90U A111C,-5.52
15,U7A C64U,-0.637
16,A16U C89G U130C,-2.31
17,C88G G110U,-2.67
18,A27C G36A G47C,-4.8
19,C53G C80U G128C,-2.66
20,G61U A83C C104A C115U,-4.01

# Source: the RNAGym collection of RNA variant scans (doi:10.1073/pnas.2313332121)
